The values below come from patent US20150118233A1.

Where a chain is given by its changes, count along the chain named.

Assay [1] deals with hRSV FTM- NN protein (membrane anchorless form of the Long fusion protein, 70 kDa) (hRSV strain Long). As to the kind of experiment: competition ELISA on coated FTM- NN; competitor biotinylated Synagis Fab. A general note: ELISA stands for enzyme-linked immunosorbent assay.
For assay [2] the target is unchanged. As to the kind of experiment: binding ELISA on immobilised FTM- protein; detection with rabbit anti-VHH and HRP goat anti-rabbit.
Substrate in assay [3]: F protein of hRSV strain Long (hRSV strain Long)
Nature of the assay: cell-based or functional assay.

In assay [4] the target is hRSV FTM- NN protein (membrane anchorless form of the Long fusion protein, 70 kDa) (hRSV strain Long). Nature of the assay: SPR (Biacore T100), FTM- NN amine-coupled, 1:1 Langmuir fit.
Assay [5] has the same target. As to the kind of experiment: SPR (Biacore) on Ftm-NN protein.
Assay [6] shares this target. Nature of the assay: SPR (Biacore) on Ftm-NN protein; Table B-5 run (selected NC41 variants), separate from Table B-1. On the technique in general: Surface plasmon resonance follows binding to a sensor surface in real time, without labels.
Substrate in assay [7]: F protein of hRSV strain Long (hRSV strain Long)
As to the kind of experiment: binding ELISA on coated hRSV (Hytest), anti-VHH detection.

Substrate in assay [8]: F protein of Long escape mutant R7C2/1 (K272E in antigenic site II) (hRSV strain Long escape mutant)
Nature of the assay: ELISA on extract of HEp-2 cells infected with R7C2/1.

Substrate in assay [9]: F protein of hRSV strain B-1 (hRSV strain B-1)
As to the kind of experiment: cell-based or functional assay.

Assay [10] addresses hRSV FTM- NN protein (membrane anchorless form of the Long fusion protein, 70 kDa) (hRSV strain Long). Nature of the assay: Alphascreen competition: FTM- NN (0.3 nM) bridged by biotinylated Synagis Fab and 101F Fab acceptor beads. Background: Bead proximity is the source of the signal in Alpha formats.

B1: Nanobody NC41 (VHH)
VHH: EVQLVESGGGLVQAGGSLSISCAASGGSLSNYVLGWFRQAPGKEREFVAAINWRGDITIGPPNVEGRFTISRDNAKNTGYLQMNSLAPDDTAVYYCGAGTPLNPGAYIYDWSYDYWGRGTQVTVSS
The term EC50 denotes the concentration needed to bring the measured effect to its halfway point. By EC50 (read off the curve) is commonly meant the concentration giving half of the maximal effect. A high value points to weaker potency. In general, Kd refers to the constant that tells how readily two partners part at equilibrium. Read a low Kd as higher affinity. As usually defined, the koff is a measure of how fast the partners let go of each other. The kon is a measure of how fast the partners come together. For the molecule B1, the half-maximal effective concentration (EC50) in assay [1] came to 32 nM. In assay [2], the EC50 (read off the curve) worked out at 1 nM. In assay [3], the Neutralization IC50 (first assay) came out at 202 nM, the Neutralization IC50 (second assay) turned out to be 122 nM and the RSV neutralization IC50 turned out to be 58 nM. In [4], this molecule displayed a Kd of 8.1 nM, an off-rate constant (koff) of 0.0067 s⁻¹ and a kon of 820000 M⁻¹ s⁻¹. In addition, in assay [5], the off-rate (koff) stood at 0.0067 s⁻¹ and the on-rate constant (kon) turned out to be 1.7e+06 M⁻¹ s⁻¹. The molecule further yielded a Kd in assay [6] of 4 nM. In addition, the half-maximal effective concentration (EC50) in assay [7] turned out to be 0.41 nM.

B2: RSV400 (7B2-15GS-7B2-15GS-7B2) (bispecific antibody)
chain: EVQLVESGGGLVQAGDSLRLSCAASGRTFSSYAMGWFRQAPGKEREFVAAISWSDGSTYYADSVKGRFTISRDNAKNTVYLQMNSLKPEDTAVYYCAADLTSTNPGSYIYIWAYDYWGQGTQVTVSSGGGGSGGGGSGGGGSEVQLVESGGGLVQAGDSLRLSCAASGRTFSSYAMGWFRQAPGKEREFVAAISWSDGSTYYADSVKGRFTISRDNAKNTVYLQMNSLKPEDTAVYYCAADLTSTNPGSYIYIWAYDYWGQGTQVTVSSGGGGSGGGGSGGGGSEVQLVESGGGLVQAGDSLRLSCAASGRTFSSYAMGWFRQAPGKEREFVAAISWSDGSTYYADSVKGRFTISRDNAKNTVYLQMNSLKPEDTAVYYCAADLTSTNPGSYIYIWAYDYWGQGTQVTVSS
Turning to B2, in assay [8], the binding (% reactivity relative to Long wild type) turned out to be 13%. Further, the concentration for a half-maximal effect (EC50 (read off the curve)) in assay [2] was 0.3 nM.

B3: Nanobody 191D3 (VHH)
VHH: EVQLVESGGGLVQAGGSLRLSCEASGRTYSRYGMGWFRQAPGKEREFVAAVSRLSGPRTVYADSVKGRFTISRDNAENTVYLQMNSLKPEDTAVYTCAAELTNRNSGAYYYAWAYDYWGQGTQVTVSS
B3 registered an EC50 in assay [1] of 5.9 nM. Moreover, in assay [3], the RSV neutralization IC50 was 253 nM. In assay [4], this molecule gave a dissociation constant Kd of 1.9 nM, an off-rate (koff) of 0.0028 s⁻¹ and a kon of 1.5e+06 M⁻¹ s⁻¹. Moreover, the half-maximal effective concentration (EC50) in [7] turned out to be 0.15 nM.

B4: Nanobody 1E4 (VHH)
VHH: B3 VHH with Y29F, R31S, S106P, A112T
The molecule B4 came in with a concentration giving a half-maximal response (EC50) in assay [1] of 4.5 nM. The RSV neutralization IC50 in [3] came out at 380 nM. In [4], this molecule gave an equilibrium dissociation constant (Kd) of 1.6 nM, a koff of 0.0013 s⁻¹ and a kon of 800000 M⁻¹ s⁻¹. For the same molecule, the 50% effective concentration (EC50) in assay [7] is 0.066 nM.

B5: Nanobody 15H8 (VHH)
VHH: EVQLVESGGGLVQAGGSLRLSCAASGRSFSNYVLGWFRQAPGKEREFVAAISFRGDSAIGAPSVEGRFTISRDNAKNTGYLQMNSLVPDDTAVYYCGAGTPLNPGAYIYDWSYDYWGRGTQVTVSS
Consider B5, for which the half-maximal effective concentration (EC50) in [1] amounted to 39 nM. Besides, in [2], the EC50 (read off the curve) was 1 nM. For the same molecule, the RSV neutralization IC50 in assay [3] amounted to 200 nM. In assay [4], the Kd stood at 16 nM, the off-rate constant (koff) amounted to 0.021 s⁻¹ and the association rate constant (kon) is 1.2e+06 M⁻¹ s⁻¹. In addition, the half-maximal effective concentration (EC50) in assay [7] amounted to 0.83 nM.

B6: RSV116 (NC41-15GS-NC41) (bispecific antibody)
chain: EVQLVESGGGLVQAGGSLSISCAASGGSLSNYVLGWFRQAPGKEREFVAAINWRGDITIGPPNVEGRFTISRDNAKNTGYLQMNSLAPDDTAVYYCGAGTPLNPGAYIYDWSYDYWGRGTQVTVSSGGGGSGGGGSGGGGSEVQLVESGGGLVQAGGSLSISCAASGGSLSNYVLGWFRQAPGKEREFVAAINWRGDITIGPPNVEGRFTISRDNAKNTGYLQMNSLAPDDTAVYYCGAGTPLNPGAYIYDWSYDYWGRGTQVTVSS
Molecule B6 came in with an EC50 (read off the curve) in assay [2] of 0.3 nM.

B7: Nanobody 15B3 (VHH)
VHH: EVQLVESGGGLVQPGGSLRLSCAASGLTLDYYALGWFRQAPGKEREGVSCISSSDHSTTYTDSVKGRFTISWDNAKNTLYLQMNSLKPGDTAVYYCAADPALGCYSGSYYPRYDYWGQGTQVTVSS
For B7, the binding (% reactivity relative to Long wild type) in assay [8] was greater than 75%. In assay [4], the equilibrium dissociation constant (Kd) was determined as 0.67 nM, the koff is 0.00027 s⁻¹ and the kon is 410000 M⁻¹ s⁻¹. In addition, in assay [7], the EC50 is 0.058 nM.

B8: RSV407 (NC41-15GS-NC41-15GS-NC41) (VHH)
chain: EVQLVESGGGLVQAGGSLSISCAASGGSLSNYVLGWFRQAPGKEREFVAAINWRGDITIGPPNVEGRFTISRDNAKNTGYLQMNSLAPDDTAVYYCGAGTPLNPGAYIYDWSYDYWGRGTQVTVSSGGGGSGGGGSGGGGSEVQLVESGGGLVQAGGSLSISCAASGGSLSNYVLGWFRQAPGKEREFVAAINWRGDITIGPPNVEGRFTISRDNAKNTGYLQMNSLAPDDTAVYYCGAGTPLNPGAYIYDWSYDYWGRGTQVTVSSGGGGSGGGGSGGGGSEVQLVESGGGLVQAGGSLSISCAASGGSLSNYVLGWFRQAPGKEREFVAAINWRGDITIGPPNVEGRFTISRDNAKNTGYLQMNSLAPDDTAVYYCGAGTPLNPGAYIYDWSYDYWGRGTQVTVSS
As to B8, the EC50 (read off the curve) in assay [2] is 0.2 nM. Besides, in assay [9], the Neutralization IC50 was 0.66 nM and the Neutralization, ratio to Synagis is 3 fold. In addition, in assay [3], the Neutralization IC50 is 0.0941 nM and the Neutralization, ratio to Synagis came out at 59 fold.

B9: RSV404 (15H8-15GS-15H8-15GS-15H8) (VHH)
chain: EVQLVESGGGLVQAGGSLRLSCAASGRSFSNYVLGWFRQAPGKEREFVAAISFRGDSAIGAPSVEGRFTISRDNAKNTGYLQMNSLVPDDTAVYYCGAGTPLNPGAYIYDWSYDYWGRGTQVTVSSGGGGSGGGGSGGGGSEVQLVESGGGLVQAGGSLRLSCAASGRSFSNYVLGWFRQAPGKEREFVAAISFRGDSAIGAPSVEGRFTISRDNAKNTGYLQMNSLVPDDTAVYYCGAGTPLNPGAYIYDWSYDYWGRGTQVTVSSGGGGSGGGGSGGGGSEVQLVESGGGLVQAGGSLRLSCAASGRSFSNYVLGWFRQAPGKEREFVAAISFRGDSAIGAPSVEGRFTISRDNAKNTGYLQMNSLVPDDTAVYYCGAGTPLNPGAYIYDWSYDYWGRGTQVTVSS
B9 yielded an EC50 (read off the curve) in assay [2] of 0.3 nM.

B10: RSV106 (7B2-15GS-7B2) (VHH)
chain: EVQLVESGGGLVQAGDSLRLSCAASGRTFSSYAMGWFRQAPGKEREFVAAISWSDGSTYYADSVKGRFTISRDNAKNTVYLQMNSLKPEDTAVYYCAADLTSTNPGSYIYIWAYDYWGQGTQVTVSSGGGGSGGGGSGGGGSEVQLVESGGGLVQAGDSLRLSCAASGRTFSSYAMGWFRQAPGKEREFVAAISWSDGSTYYADSVKGRFTISRDNAKNTVYLQMNSLKPEDTAVYYCAADLTSTNPGSYIYIWAYDYWGQGTQVTVSS
Consider B10, for which, in [8], the binding (% reactivity relative to Long wild type) was found to be 4.4%.

B11: Nanobody 7B2 (VHH)
VHH: EVQLVESGGGLVQAGDSLRLSCAASGRTFSSYAMGWFRQAPGKEREFVAAISWSDGSTYYADSVKGRFTISRDNAKNTVYLQMNSLKPEDTAVYYCAADLTSTNPGSYIYIWAYDYWGQGTQVTVSS
Molecule B11 had an EC50 in [1] of 1.9 nM. In assay [2], this molecule yielded a concentration giving a half-maximal response (EC50 (read off the curve)) of 0.3 nM. In addition, in assay [3], the RSV neutralization IC50 turned out to be 91 nM. In assay [4], this molecule came in with a dissociation constant (Kd) of 1.1 nM, an off-rate (koff) of 0.00065 s⁻¹ and a kon of 570000 M⁻¹ s⁻¹. Moreover, the concentration giving a half-maximal response (EC50) in assay [7] turned out to be 0.09 nM.

B12: Synagis® Fab (Fab, part only; not given: Constant regions, biotin sites, V domains shown, not shown: another chain or arm of the molecule)
VH: QVTLRESGPALVKPTQTLTLTCTFSGFSLSTSGMSVGWIRQPPGKALEWLADIWWDDKKDYNPSLKSRLTISKDTSKNQVVLKVTNMDPADTATYYCARSMITNWYFDVWGAGTTVTVSS
VL: DIQMTQSPSTLSASVGDRVTITCKCQLSVGYMHWYQQKPGKAPKLLIYDTSKLASGVPSRFSGSGSGTEFTLTISSLQPDDFATYYCFQGSGYPFTFGGGTKLEIK
In general, IC50 refers to the concentration needed to halve the response being measured. A higher IC50 goes with weaker potency in that assay. Molecule B12 returned a concentration for half-maximal inhibition (IC50) in assay [10] of 0.597 nM. In other words, the sub-nanomolar range.

B13: Nanobody 191E4 (VHH)
VHH: EVQLVESGGGLVQAGGSLRLSCAASGPTFSADTMGWFRQAPGKEREFVATIPWSGGIAYYSDSVKGRFTMSRDNAKNTVDLQMNSLKPEDTALYYCAGSSRIYIYSDSLSERSYDYWGQGTQVTVSS
As for B13, the binding (% reactivity relative to Long wild type) in assay [8] is greater than 75%. In assay [4], this molecule had a dissociation constant (Kd) of 0.27 nM, a koff of 0.00015 s⁻¹ and a kon of 570000 M⁻¹ s⁻¹. Also, the concentration for a half-maximal effect (EC50) in assay [7] amounted to 0.083 nM.

B14: Nanobody NC23 (VHH)
VHH: EVQLVESGGGLVQPGGSLRLSCAASGRTFSSIAMGWFRQAPGKEREFVAAISWSRGRTFYADSVKGRFIISRDDAANTAYLQMNSLKPEDTAVYYCAVDTASWNSGSFIYDWAYDHWGQGTQVTVSS
Take B14: in assay [1], the 50% effective concentration (EC50) turned out to be 2.3 nM. Also, in assay [3], the RSV neutralization IC50 is 144 nM. For the same molecule, in [4], the Kd was determined as 0.92 nM, the off-rate (koff) was 0.00074 s⁻¹ and the on-rate (kon) was 800000 M⁻¹ s⁻¹. Further, in [7], the 50% effective concentration (EC50) was 0.1 nM.
